# Data: article PMC5753033 (2017)
# How the values were obtained:
# [1] = biological target: Native, cytoplasmic actin from Acanthamoeba castellanii, monomeric (Acanthamoeba castellanii); assay: FP
# WAVE1 PRD[E] = WAVE1 PRD[E] (human, UniProt Q92558 277-488, C296 | C407, Texas Red maleimide (KCK variants) or Alexa 546 maleimide (C variants) on the introduced cysteine); assay: AUC
# WAVE1 PRD[C] = WAVE1 PRD[C] (human, UniProt Q92558 277-488, C296 | C407, Texas Red maleimide (KCK variants) or Alexa 546 maleimide (C variants) on the introduced cysteine); assay: AUC
# Chain of WAVE1 PRD[C] (Q92558 other isoform, or with tags, fused parts or gaps, change not shown): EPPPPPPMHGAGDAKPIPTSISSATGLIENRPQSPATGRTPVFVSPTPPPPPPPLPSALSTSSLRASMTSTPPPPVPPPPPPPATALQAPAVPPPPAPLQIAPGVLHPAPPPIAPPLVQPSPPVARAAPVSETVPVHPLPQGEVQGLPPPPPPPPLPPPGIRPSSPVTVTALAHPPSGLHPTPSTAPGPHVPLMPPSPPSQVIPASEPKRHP
# WAVE1 PRD[A] = WAVE1 PRD[A] (human, UniProt Q92558 277-488, C296 | C407, Texas Red maleimide (KCK variants) or Alexa 546 maleimide (C variants) on the introduced cysteine); assay: AUC
# Chain of WAVE1 PRD[A] (Q92558 other isoform, or with tags, fused parts or gaps, change not shown): as above
# WAVE1 PRD[B] [2] = biological target: T1, WAVE1 PRD[B] (human, UniProt Q92558 277-488, C296 | C407, Texas Red maleimide (KCK variants) or Alexa 546 maleimide (C variants) on the introduced cysteine); assay: AUC
# T1 sequence (Q92558 other isoform, or with tags, fused parts or gaps, change not shown): as above
# WAVE1 PRD [Null] = WAVE1 PRD [Null] (human, UniProt Q92558 277-488, C296 | C407, Texas Red maleimide (KCK variants) or Alexa 546 maleimide (C variants) on the introduced cysteine); assay: AUC
# Chain of WAVE1 PRD [Null] (Q92558 other isoform, or with tags, fused parts or gaps, change not shown): as above
# WAVE1 PRD[F] = WAVE1 PRD[F] (human, UniProt Q92558 277-488, C296 | C407, Texas Red maleimide (KCK variants) or Alexa 546 maleimide (C variants) on the introduced cysteine); assay: AUC
# Chain of WAVE1 PRD[F] (Q92558 other isoform, or with tags, fused parts or gaps, change not shown): as above
# WAVE1 PRD[D] = WAVE1 PRD[D] (human, UniProt Q92558 277-488, C296 | C407, Texas Red maleimide (KCK variants) or Alexa 546 maleimide (C variants) on the introduced cysteine); assay: AUC
# Chain of WAVE1 PRD[D] (Q92558 other isoform, or with tags, fused parts or gaps, stated change not applied): as the sequence (Q92558 other isoform, or with tags, fused parts or gaps, change not shown) above
# WAVE1 PRD[B] [3] = biological target: T1, WAVE1 PRD[B]; assay: AUC; 2:1 binding model, Kd1 (fit)
# Chain of WAVE1 PRD[E] (Q92558 other isoform, or with tags, fused parts or gaps, change not shown): as above
Binder,Kd [1],Kd (WAVE1 PRD[E]),Kd (WAVE1 PRD[C]),Kd (WAVE1 PRD[A]),Kd (WAVE1 PRD[B] [2]),Kd (WAVE1 PRD [Null]),Kd (WAVE1 PRD[F]),Kd (WAVE1 PRD[D]),Kd (WAVE1 PRD[B] [3])
"WAVE1 WCA, unlabeled, soluble (domain or fragment) STLPVISDARSVLLEAIRKGIQLRKVEEQREQEAKHERIENDVATILSRRIAVEYSDSEDDSEFDEVDWLE",0.068 µM,–,–,–,–,–,–,–,–
"Alexa488-labeled WAVE1 WCA (domain or fragment, Alexa488-maleimide on Cys490) SCLPVISDARSVLLEAIRKGIQLRKVEEQREQEAKHERIENDVATILSRRIAVEYSDSEDDSEFDEVDWLE",0.029 µM,–,–,–,–,–,–,–,–
Mouse profilin 2a (natural protein) MAGWQSYVDNLMCDGCCQEAAIVGYCDAKYVWAATAGGVFQSITPVEIDMIVGKDREGFFTNGLTLGAKKCSVIRDSLYVDGDCTMDIRTKSQGGEPTYNVAVGRAGRVLVFVMGKEGVHGGGLNKKAYSMAKYLRDSGF,–,182 µM,12 µM,51 µM,2 µM,138 µM,4 µM,145 µM,2.07 µM
